From patent publication US20170296650A1 (Novartis, published 2017)

T1: hCMV UL128 (HEK293T transfectant) (hCMV, UniProt P16837 28-171)
T1 sequence: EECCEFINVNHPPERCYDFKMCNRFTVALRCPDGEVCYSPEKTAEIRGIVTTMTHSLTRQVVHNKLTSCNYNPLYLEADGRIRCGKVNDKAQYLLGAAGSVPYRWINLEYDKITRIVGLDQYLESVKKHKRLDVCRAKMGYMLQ

B1: 15D8 (antibody, V domains shown)
VH: EVQLVQSGAEVKKPGESLKISCQASGYSFTNYWIAWVRQMPGKGLEWMGIIYPGDSDIKYSPSFRGQVTISADKSISNAFLQWRSLRASDTAMYYCARHAIRGDGFDYWGQGTLVTVSS
VL: SYELTQPPSVSVSPGQTATITCSGDKLGEKYACWYQQKPGQSPVLVMYQDTKRPSGIPERFSGSNSGNTATLTISGTRAMDEADYYCQAWDTNTVIFGGGTKLTVL
notes: human IgG; also called 15D8-biotin
B2: 8I21 (antibody, V domains shown)
VH: LVELVESGGGVVQPGRSLRLSCAASGFTFSSDGMHWVRQSPGRGLEWVAFISSDGSTPYYADSVKGRFTISRDNSKNTLYLQMNSLRAEDTAMYFCAKDWALFRWLRTFDHWGQGTLVTVSS
VL: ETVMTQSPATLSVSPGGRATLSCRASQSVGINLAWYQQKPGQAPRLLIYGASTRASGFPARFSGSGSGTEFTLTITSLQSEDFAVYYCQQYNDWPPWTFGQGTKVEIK
notes: human IgG; also called 8I21-biotin
B3: 5F1 (antibody, V domains shown)
VH: AVQLVESGGGLAQPGRSLRLSCKVSGFTFSSYEMNWVRQAPGKGLEWIAYIDFTGSTIYYADSVKGRFTISRDTARNSLYLQMNKLRVEDTAVYYCVRDAGRWGTSWYYFDYWGQGTLVTVSS
VL: QSVLTQPPSVSGAPGQRVTISCTGLSSNIGAGYDIHWYQQIPGKAPKLLIYGNNNRPSGVPDRFSGSKSGTSVSLAITGLQAEDEADYYCQSYDSSLNGWVFGGGTRLTVL
notes: human IgG; also called 5F1-biotin
B4: 10C6 (antibody, V domains shown)
VH: AVQLVESGGGLAQPGRSLRLSCKVSGFSFSNFEMNWVRQAPGKGLEWIAYIDFTGSTIYYSDSVKGRFTISRDTARNSLYLQMNKLRVEDTAVYYCVRDAGRWGTSWYYFDYWGQGTLVTVSS
VL: QSVLTQPPSVSGAPGQRVTISCTGLSSNIGAGYDIHWYQQIPGKAPKLLIYGNNNRPSGVPDRFSGSKSGTSVSLAITGLQAEDEADYYCQSYDSSLNGWVFGGGTRLTVL
notes: human IgG; also called 10C6-biotin; 1006
B5: 6B4 (antibody, V domains shown)
VH: QVQLVESGGGVVQPGRSLRLSCAASGFRFNEFNMHWVRQAPGKGLEWVAVISIDGRHKYNADSVEGRFTISRDNSRNTLYLQMNSLRVEDTALYYCVTDGKAVDGFSGILEFWGQGTPVTVST
VL: EIVLTQSPATLSLSPGERATLSCWASQSVGGYLAWYQQKPGQAPRLLIYDASIRATGIPARFSGSGSGTHFTLTINSLEPEDFAVYYCQQRNNWPPLTFGGGTKVEIK
notes: human IgG; also called 6B4-biotin
B6: 4H9 (antibody, V domains shown)
VH: AVQLVESGGGLVRPGGSLRLSCAASGFTFSSHEMHWVRQAPGKGLEWLSYIDFTGSIIYYADSVRGRFTISRDNTKKSLFLQMNSLRDEDTALYYCARDGGRWGTSWYYFDYWGQGVLVTVSS
VL: QSVLTQPPSVSGAPGQRVTITCTGSSSNFGAGYDGHWYQQLPGTAPKLLIYGSNRPSGVPDRFSGSKSGTSVSLAITGLQADDEADYYCQSYDSSLSAWVFGGGTKLTVL
notes: human IgG; also called 4H9-biotin; 4H9.6

Legend:
[1] = molecular target: T2, hCMV gH + gL + UL128 + UL130 + UL131A (5-member complex; HEK293T co-transfectant) (hCMV, UniProt P12824 24-743; P16832 31-278; P16837 1-171; P16772 1-214); assay: cell competition; competitor 4N10-biotin
T2 construct: whole, on cells; in the functional rows it stands for the complex on virions or transduced cells of the strain or isolate named in the readout; also called gH/gL/UL128-131A complex; pentameric complex

[2] = molecular target: T2, hCMV gH + gL + UL128 + UL130 + UL131A …; assay: cell competition; competitor 2F4-biotin
[3] = molecular target: T2, hCMV gH + gL + UL128 + UL130 + UL131A …; assay: cell competition; competitor 6G4-biotin
[4] = molecular target: T2, hCMV gH + gL + UL128 + UL130 + UL131A …; assay: cell competition; competitor 5A2-biotin
[5] = molecular target: T2, hCMV gH + gL + UL128 + UL130 + UL131A …; assay: cell competition; competitor 10F7-biotin
[6] = molecular target: T2, hCMV gH + gL + UL128 + UL130 + UL131A …; assay: cell competition; competitor 8I21-biotin
[7] = molecular target: T2, hCMV gH + gL + UL128 + UL130 + UL131A …; assay: cell competition; competitor 4I22-biotin
[8] = molecular target: T1, hCMV UL128 (HEK293T transfectant); assay: cell-based or functional assay
[9] = molecular target: T2, hCMV gH + gL + UL128 + UL130 + UL131A …; assay: cell competition; competitor 1F11-biotin
[10] = molecular target: T2, hCMV gH + gL + UL128 + UL130 + UL131A …; assay: cell competition; competitor 2C12-biotin
[11] = molecular target: T1, hCMV UL128 (HEK293T transfectant); assay: cell-based or functional assay; remark: listed apart in the source
[12] = molecular target: T2, hCMV gH + gL + UL128 + UL130 + UL131A …; assay: cell competition; competitor 15D8-biotin
[13] = molecular target: T3, hCMV gH + gL + UL128 + UL130 (HEK293T co-transfectant) (hCMV, UniProt P12824 24-743; P16832 31-278; P16837 28-171; P16772 1-214); assay: cell-based or functional assay
[14] = molecular target: T3, hCMV gH + gL + UL128 + UL130 (HEK293T …); assay: cell-based or functional assay; remark: listed apart in the source
[15] = molecular target: T4, hCMV glycoprotein B (gB; HEK293T transfectant) (hCMV, UniProt P06473 32-906); assay: cell competition; competitor 10C6-biotin
T4 construct: whole, on cells; in the functional rows it stands for gB on virions or transduced cells of the strain or isolate named in the readout
T4 sequence (P06473 32-906 limits assumed): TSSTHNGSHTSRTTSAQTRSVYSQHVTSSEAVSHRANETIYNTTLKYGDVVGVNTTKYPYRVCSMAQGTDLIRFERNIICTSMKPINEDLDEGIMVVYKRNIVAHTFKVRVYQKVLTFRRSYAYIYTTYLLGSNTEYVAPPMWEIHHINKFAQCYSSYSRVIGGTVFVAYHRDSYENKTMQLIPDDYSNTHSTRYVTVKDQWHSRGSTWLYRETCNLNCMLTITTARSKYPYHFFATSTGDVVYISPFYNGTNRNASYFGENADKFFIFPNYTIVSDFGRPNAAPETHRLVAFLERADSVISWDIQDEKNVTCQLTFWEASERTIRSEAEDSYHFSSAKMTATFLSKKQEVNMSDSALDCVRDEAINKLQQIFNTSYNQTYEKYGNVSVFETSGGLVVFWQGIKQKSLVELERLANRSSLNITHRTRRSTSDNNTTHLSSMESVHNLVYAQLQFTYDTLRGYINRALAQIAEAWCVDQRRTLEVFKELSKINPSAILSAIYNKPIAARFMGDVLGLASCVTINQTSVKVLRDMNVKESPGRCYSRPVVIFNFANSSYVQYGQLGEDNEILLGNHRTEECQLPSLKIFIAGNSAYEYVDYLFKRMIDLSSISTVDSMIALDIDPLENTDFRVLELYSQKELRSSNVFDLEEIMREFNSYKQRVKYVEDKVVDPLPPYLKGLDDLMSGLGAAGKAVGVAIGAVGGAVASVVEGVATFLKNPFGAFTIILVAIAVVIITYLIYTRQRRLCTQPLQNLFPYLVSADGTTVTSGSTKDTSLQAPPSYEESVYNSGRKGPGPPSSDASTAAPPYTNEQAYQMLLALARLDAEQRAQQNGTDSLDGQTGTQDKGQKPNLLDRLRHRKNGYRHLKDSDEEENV

[16] = molecular target: T4, hCMV glycoprotein B (gB; HEK293T …); assay: cell competition; competitor 4H9-biotin
[17] = molecular target: T4, hCMV glycoprotein B (gB; HEK293T …); assay: cell competition; competitor 2B11-biotin
[18] = molecular target: T4, hCMV glycoprotein B (gB; HEK293T …); assay: cell competition; competitor 7H3-biotin
[19] = molecular target: T4, hCMV glycoprotein B (gB; HEK293T …); assay: cell-based or functional assay
[20] = molecular target: T4, hCMV glycoprotein B (gB; HEK293T …); assay: cell-based or functional assay; remark: listed apart in the source
[21] = molecular target: T4, hCMV glycoprotein B (gB; HEK293T …); assay: cell competition; competitor 5F1-biotin
[22] = molecular target: T4, hCMV glycoprotein B (gB; HEK293T …); assay: cell competition; competitor 6B4-biotin
[23] = molecular target: T4, hCMV glycoprotein B (gB; HEK293T …); assay: cell-based or functional assay; remark: listed apart in the source

Binder | Inhibition of binding (%) [1] [%] | Inhibition of binding (%) [2] [%] | Inhibition of binding (%) [3] [%] | Inhibition of binding (%) [4] [%] | Inhibition of binding (%) [6] [%] | Inhibition of binding (%) [7] [%] | Inhibition of binding (%) [9] [%] | Inhibition of binding (%) [10] [%] | Inhibition of binding (%) [15] [%] | Inhibition of binding (%) [16] [%] | Inhibition of binding (%) [17] [%] | Inhibition of binding (%) [18] [%] | 90% neutralization VR1814, ARPE [19] [µg/mL] | 90% neutralization VR1814, MRC-9 [19] [µg/mL] | 50% neutralization VR1814, BM-MSC [20] [µg/mL] | 50% neutralization VR1814, Mo-DC [20] [µg/mL] | Inhibition of binding (%) [21] [%] | Inhibition of binding (%) [22] [%] | 50% neutralization VR1814, ARPE [23] [µg/mL] | 50% neutralization VR1814, MRC-9 [23] [µg/mL] | also measured
B1 | 0 | 0 | 0 | 0 | 0 | 0 | 0 | 0 | – | – | – | – | – | – | – | – | – | – | – | – | Inhibition of binding (%) [5]: 0%; 90% neutralization VR1814, ARPE [8]: 0.008 µg/mL; 90% neutralization VR1814, MRC-9 [8]: > 10 µg/mL; 50% neutralization VR1814, ARPE [11]: < 0.001 µg/mL; 50% neutralization VR1814, MRC-9 [11]: > 2 µg/mL; Inhibition of binding (%) [12]: 100%
B2 | 90 | 0 | 0 | 95 | 100 | 0 | 0 | 0 | – | – | – | – | – | – | – | – | – | – | – | – | 90% neutralization VR1814, ARPE [13]: 0.03 µg/mL; 90% neutralization VR1814, MRC-9 [13]: > 10 µg/mL; 50% neutralization VR1814, ARPE [14]: < 0.01 µg/mL; 50% neutralization VR1814, MRC-9 [14]: > 2 µg/mL; Inhibition of binding (%) [12]: 0%
B3 | – | – | – | – | – | – | – | – | 100 | 100 | 100 | 0 | 0.1 | 0.5 | 0.3 | 0.05 | 100 | 0 | ≤ 2 | ≤ 2 | –
B4 | – | – | – | – | – | – | – | – | 100 | 100 | 100 | 0 | 0.2 | 0.75 | 0.3 | 0.02 | 100 | 0 | ≤ 2 | ≤ 2 | –
B5 | – | – | – | – | – | – | – | – | 0 | 0 | 0 | 0 | 0.15 | 1 | 2 | 0.11 | 0 | 100 | ≤ 2 | ≤ 2 | –
B6 | – | – | – | – | – | – | – | – | 100 | 100 | 100 | 0 | 0.4 | 10 | – | – | 100 | 0 | ≤ 2 | ≤ 2 | –
